From the supplement of paper PMC9170038

System: MS2 coat protein
Experiment: apparent KD of MS2 coat protein; designed switch direction (-1 OFF switch, 1 ON switch): -1; higher = weaker reporter binding
Outline: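 Each step of the titration lasted 0.8–1.5 h at the lowest concentration and 10–20 min at the highest. The protein, SNAP-549-labelled MS2 coat protein, went from 0.7 or 1.5 nM doubling to 3 µM over RNA switches transcribed on Illumina chips by stalled E. coli RNA polymerase. Normalised cluster fluorescence was curve-fitted, and the per-design median over clusters is given as apparent KD.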

[1] = Eterna round: R95, input ligand: FMN 200 uM
[2] = Eterna round: R95, input ligand: microRNA oligo, concentration not stated
[3] = Eterna round: R95, input ligand: none

Sequence	apparent KD of MS2 coat protein [1] [nM]	apparent KD of MS2 coat protein [2] [nM]	apparent KD of MS2 coat protein [3] [nM]	apparent KD of MS2 coat protein (input ligand: FMN 200 uM) [nM]	apparent KD of MS2 coat protein (input ligand: none) [nM]	apparent KD of MS2 coat protein (input ligand: microRNA oligo, concentration not stated) [nM]
GAGGAACAUGAGGAUCACCCAUGUAAGGAUAUGCAAAGCGAGGUAGUAGAAGGAGAAGGCAGAAGGUACACGGA [JR_Exclu1_Sub075] (puzzle: Exclusion 1)	31.9	29.6	45.3			
GAGGCUAAAGGAUAUACAUGAGGAUCACCCAUGUGGAGGAAGGUUAGAUGAGGAGAAGGUAGAAGGUUAGGCGG [JR_Exclu3_Sub094] (puzzle: Exclusion 3)		31.1				
GAGUGACAUGAGGAUCACCCAUGUGAGGAUAUCGGACGGACCAAAUUAACAAUAAAUGCGAGAAGGCGCAUCGG [Exclusion 1 V16] (puzzle: Exclusion 1)	46.7	43.3	54.3			
GAGUGACAUGAGGAUCACCCAUGUGAGGAUAUCGGACGGACCUUGUUAGCUUCCGCCGCGAGAAGGCACAUCGG [Exclusion 1 V25] (puzzle: Exclusion 1)		94.3				
GAGUGACAUGAGGAUCACCCAUGUGAGGAUAUCGGCCGGACCUUGUUAGCUUCCGCCGCGAGAAGGCACAUCGG [Exclusion 1 V28] (puzzle: Exclusion 1)		55.9				
GAGUGCUGAGGAUAUACAUGAGGAUCACCCAUGUGCUUCAGCUAGGAGACUAGCAUUCGUAGAAGGCAGUACUC [Mod of lroppy 22 - Jieux - Exclusion 3] (Eterna round: R97, puzzle: Exclusion 3)				42.6	14.7	
GAGUGUUGAGGAUAUACAUGAGGAUCACCCAUGUGCUUCAGCUAGGAGACUAGCAUUGGUAGAAGGCAGUACUC [Mod of lroppy 9 - Jieux - Exclusion 3] (Eterna round: R97, puzzle: Exclusion 3)				48.3	37.1	
GAGUUAGCGUGAGGAAUAUACAUGAGGAUCACCCAUGUUAGCUUAUAUAUUGCUCGUCUUAUAACAACAAUUAACUG [Mod JX-Electric-eye2] (Eterna round: R97, puzzle: Sensor, turn-off variant 1)				25.4	27.2	
GAUAAAGGGCAGGAUAUGGCUGGAAAAUAUCCGCCAGAAGGGCCCACAUGAGGAUCACCCAUGUGUGGUCCGCG [Lere] (puzzle: Exclusion 6)	52.3	17.3	19.1			
GAUAGAGAGCAGGAUAUCUUGGAUAAGUAUAGUAGAGAAGGGCUCACAUGAGGAUCACCCAUGUGGUCCUAGAU [JL Dibiri mod 11] (puzzle: Exclusion 6)	43.8	14.9	15			
GAUAGAGAGCAGGAUAUCUUGGAUAAGUAUUGUAGAGAAGGGCUCACAUGAGGAUCACCCAUGUGGUCCUAGAU [JL Dibiri mod 10] (puzzle: Exclusion 6)		14.8				
GAUCACUGAGGAUAUACACAGAUACAAAGUAUCUGACCGUGACAUGAGGAUCACCCAUGUAGAAGGCAGAGGUC [Omei Ex2 B1] (Eterna round: R97, puzzle: Exclusion 2)				384	47.2	
GAUCCACAUGAGGAUCACCCAUGUGAGGAUAUGAUACUAUGUACUUCGGUACAUAGUAUCAGAAGGCACGGGUC [Ex1-3: 55] (puzzle: Exclusion 1)		72.5				
GAUCCGAUUGUCAGGAUAUUCAAAACGGCGCAAAAGAAGAAGGGACAUGAGGAUCACCCAUGUAUACGCCACCA [Usisbima] (Eterna round: R97, puzzle: Brourd's mod of Exclusion 4)				36.7	332	
GAUCCUCGGGUUAGGAUAUCGAGGAUGUACGUCAGCGAGAAGGAACAUGAGGAUCACCCAUGUUGCUUAGCAAG [BmEX4 A.18] (Eterna round: R97, puzzle: Brourd's mod of Exclusion 4)				21.1	19.5	
GAUCCUUCUGUUAGGAUAUGCUUUGGGCUUCCGCAGCAGAAGGAACAUGAGGAUCACCCAUGUCAAAUACCAUC [salish99_bmex4_r4_503] (Eterna round: R97, puzzle: Brourd's mod of Exclusion 4)				23.1	23.1	
GAUGAGCAUGUCAGGAUAUCCACUCUAAUAAAACAGGAGAAGGGACAUGAGGAUCACCCAUGUUCUAGACAUGA [Latealedi] (puzzle: Brourd's mod of Exclusion 4)	14.5	13.1	14			
GAUGAGGUAGGAUAUACGAGAAGAUAGGGUAGAUAGAGAACACAUGAGGAUCACCCAUGUAGAAGGACCAGUAG [Mat - Exclusion 2 - Mod of my Tesla design - D73] (puzzle: Exclusion 2)		25.9				

Sequence	apparent KD of MS2 coat protein [1] [nM]	apparent KD of MS2 coat protein [2] [nM]	apparent KD of MS2 coat protein [3] [nM]	apparent KD of MS2 coat protein (input ligand: FMN 200 uM) [nM]	apparent KD of MS2 coat protein (input ligand: none) [nM]	apparent KD of MS2 coat protein (input ligand: microRNA oligo, concentration not stated) [nM]
GAUGGACAUGAGGAUCACCCAUGUAAGGAUAUUGAUUGUGGCUAUAAAUAGUUACGGUCAAGAAGGUACUCGUC [-21.6, -18.6 kcal, A 31%] (Eterna round: R97, puzzle: Exclusion 1)				128	161	
GAUGGAGAGCAGGAUAUCUUGGGUAAGCAUCAUAGAGAAGGGCUCACAUGAGGAUCACCCAUGUGGUCCAAGAA [Usbiridi] (Eterna round: R96, puzzle: Exclusion 6)				57	18.3	15.1
GAUGGAGAGCAGGAUAUCUUGGGUAAGCAUCAUAGAGAAGGGCUCACAUGAGGAUCACCCAUGUGGUCCAAGAA [Usbiridi] (puzzle: Exclusion 6)		14.1				
GAUGUGAGACAGGAUAUCCACGGGAUAGUCUGAGGAGAAGGGUCUACAUGAGGAUCACCCAUGUGCGUCCCUCA [EX6 B.8] (Eterna round: R97, puzzle: Exclusion 6)				22.4	15.5	
GAUUAACAUGAGGAUCACCCAUGUGAGGAUAUGGAAUGGCUCAUUGUCUGAUUUCCUUCUAGAAGGCACAUCUU [1986#4c] (Eterna round: R97, puzzle: Exclusion 1)				72.2	63.3	
GAUUACACAAGCUUUAGGGACAUGAGGAUCACCCAUGUUCGUCUUAUUGAUCUAGGUACGCUGACGUACCUAGAUCU [JL-sv1-2.31 Brourd mod] (puzzle: Sensor v3, turn-off variant 1)	14.5	84.9	13.2			
GAUUAGCAAGCGAGAUCCCACAUGAGGAUCACCCAUGUGCUCGUCUUAUAAAGUACUGUGACGAAAGUCACGGUACA [Mat - Sensor, turn-off var - Eli Mod - D11] (Eterna round: R97, puzzle: Sensor, turn-off variant 1)				17.2	14.8	
GAUUAUGCGAGCUUUAGGGACAUGAGGAUCACCCAUGUUCGUCUUAUUAGUCUAAAUACACUGACAUACCUAAAUCU [JMF 54] (puzzle: Sensor v3, turn-off variant 1)	17.3	15.9	13.6			
GAUUAUGCGAGCUUUAGGGACAUGAGGAUCACCCAUGUUCGUCUUAUUAGUCUAAGUGCACUGACAUACCUAAAUCU [JMF 83] (puzzle: Sensor v3, turn-off variant 1)	15.8	23.2	16.6			
GAUUAUGCGAGCUUUAGGGACAUGAGGAUCACCCAUGUUCGUCUUAUUAGUCUGGGUACACUAACAUACCUAAAUCU [JMF 21] (puzzle: Sensor v3, turn-off variant 1)	26.9	43.6	30.4			
GAUUAUGCGAGCUUUAGGGACAUGAGGAUCACCCAUGUUCGUCUUAUUAGUCUGGGUGCGCUAACAUACCUAAAUCU [JMF 53] (puzzle: Sensor v3, turn-off variant 1)	90.1	148	175			
GAUUAUGCGAGCUUUAGGGACAUGAGGAUCACCCAUGUUCGUCUUAUUGAUCUAGAUGCACUGACAUACCUAAAUCU [JMF 77] (puzzle: Sensor v3, turn-off variant 1)	15.1	18.7	17.2			
GAUUAUGCGAGCUUUAGGGACAUGAGGAUCACCCAUGUUCGUCUUAUUGAUCUAGGUACACUAACAUACCUAAAUCU [JMF 17] (puzzle: Sensor v3, turn-off variant 1)	19.8	38.1	23.1			
GAUUAUGCGAGCUUUAGGGACAUGAGGAUCACCCAUGUUCGUCUUAUUGGUCUAGGUACACUGACAUACCUAAAUCU [JMF 68] (puzzle: Sensor v3, turn-off variant 1)	22.7	37.2	23			
GAUUAUGCGAGCUUUAGGGACAUGAGGAUCACCCAUGUUCGUCUUAUUGGUCUGAGUGCACUAACAUACCUAAAUCU [JMF 31] (puzzle: Sensor v3, turn-off variant 1)	23.1	37.3	22.8			
GAUUAUGCGAGCUUUAGGGACAUGAGGAUCACCCAUGUUCGUCUUAUUGGUCUGGGUACACUAACAUACCUAAAUCU [JMF 22] (puzzle: Sensor v3, turn-off variant 1)	33.4	47.9	36.2			
GAUUAUGCGAGCUUUAGGGACAUGAGGAUCACCCAUGUUCGUCUUGUUGAUCUAGGUACGCUAACAUACCUAAAUCU [JMF 6] (puzzle: Sensor v3, turn-off variant 1)	19.7	28.3	20.2			
